From patent US20140370568A1, “Specialized (iso)eugenol-4-O-methyltransferases (s-IEMTs) and Methods of Making and Using the Same” (Brookhaven Science Associates, LLC, priority 2013, published 2014)

Experiments:
Assay type in all cases: biochemical
[1] = Specific activity with ferulic acid as the substrate
Description: (§1) Each of the s-IEMTs was isolated following expression in bacterial cells of nucleic acid sequences encoding the enzymes. The isolated enzymes were analyzed for their substrate versatility, specificity and enzyme kinetics on various phenolic substrates.

[2] = Specific activity with 5-hydroxyl coniferyl alcohol (formation of iso-sinapyl alcohol); conditions: substrate 5-hydroxyl coniferyl alcohol; product iso-sinapyl alcohol
Description: as §1
Iso-synapyl alcohol is thought to have the potential to be incorporated into lignin. These two additional specialized IEMT's having eight amino acid substitutions are designated as follows and have the indicated substitutions: […]

[3] = Enzyme kinetics, coniferyl alcohol as substrate; conditions: coniferyl alcohol versus sinapyl alcohol
Description: as §1

B1: MOMT-5: previously generated modified C. breweri (iso)eugenol-4-O-methyltransferase (m-IEMT), substitutions T133L/E165I/F175I/F166W/H169F (protein, UniProt O04385 3-368, looked up, variant T133L E165I F175I F166W H169F)
(Iso)eugenol …: STGNAEIQIIPTHSSDEEANLFAMQLASAAVLPMALKAAIELDVLEIMAKSVPPSGYISPAEIAAQLPTTNPEAPVMLDRVLRLLASYSVVTYTLRELPSGKVERLYGLAPVCKFLTKNEDGVSLAPFLLLATDKVLLEPWFYLKDAILEGGIPFNKAYGMNIWDYFGTDHRINKVFNKGMSSNSTITMKKILEMYNGFEGLTTIVDVGGGTGAVASMIVAKYPSINAINFDLPHVIQDAPAFSGVEHLGGDMFDGVPKGDAIFIKWICHDWSDEHCLKLLKNCYAALPDHGKVIVAEYILPPSPDPSIATKVVIHTDALMLAYNPGGKERTEKEFQALAMASGFRGFKVASCAFNTYVMEFLKTA
Specific activity with ferulic acid as the substrate [1]: 7.84 nmol/min/mg | Specific activity with 5-hydroxyl coniferyl alcohol, iso-sinapyl alcohol [2]: 43.5 ± 4.0 nmol/mg/min | catalytic efficiency (kcat/Km) for coniferyl alcohol higher than for sinapyl alcohol [3]: less than 3 fold
